Publication doi:10.1101/2022.05.17.492379

T1: Esrrb (Mus musculus, UniProt Q61539 1-433)
T1 sequence: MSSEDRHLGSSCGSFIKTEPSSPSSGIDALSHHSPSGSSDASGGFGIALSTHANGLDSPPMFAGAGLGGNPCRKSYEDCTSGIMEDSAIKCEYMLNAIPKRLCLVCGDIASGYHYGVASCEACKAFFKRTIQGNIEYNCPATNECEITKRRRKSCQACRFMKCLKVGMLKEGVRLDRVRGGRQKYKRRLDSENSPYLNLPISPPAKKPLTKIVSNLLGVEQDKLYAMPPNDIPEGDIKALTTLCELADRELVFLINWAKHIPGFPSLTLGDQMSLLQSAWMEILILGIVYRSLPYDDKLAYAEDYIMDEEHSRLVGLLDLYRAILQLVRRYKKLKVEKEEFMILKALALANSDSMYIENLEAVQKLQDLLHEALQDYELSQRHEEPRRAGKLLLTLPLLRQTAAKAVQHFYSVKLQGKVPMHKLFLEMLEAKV


Assays:
[1] = target: Nr5a2 (Mus musculus, UniProt P45448 1-560); assay: fluorescence polarization
[2] = target: T1, Esrrb; assay: fluorescence polarization

Chain of Nr5a2 (P45448 whole entry): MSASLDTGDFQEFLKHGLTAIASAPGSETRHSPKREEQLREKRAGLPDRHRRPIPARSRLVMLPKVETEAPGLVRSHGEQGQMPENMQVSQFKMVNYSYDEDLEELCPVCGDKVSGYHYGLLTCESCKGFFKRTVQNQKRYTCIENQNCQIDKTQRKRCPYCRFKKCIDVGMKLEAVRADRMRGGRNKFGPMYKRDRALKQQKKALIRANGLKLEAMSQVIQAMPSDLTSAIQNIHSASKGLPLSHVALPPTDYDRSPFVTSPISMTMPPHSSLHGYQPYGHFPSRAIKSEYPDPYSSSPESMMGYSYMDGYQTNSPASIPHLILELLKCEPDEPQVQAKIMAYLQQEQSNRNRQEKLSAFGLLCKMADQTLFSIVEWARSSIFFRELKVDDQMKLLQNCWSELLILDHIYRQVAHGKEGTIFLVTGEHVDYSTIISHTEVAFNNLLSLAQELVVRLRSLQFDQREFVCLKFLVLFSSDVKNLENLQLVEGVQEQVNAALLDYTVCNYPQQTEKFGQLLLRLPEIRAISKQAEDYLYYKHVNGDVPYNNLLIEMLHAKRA

Row | Binder | Kd [1] [nM] | Kd [2] [nM]
1 | Esrrb motif DNA (dsDNA) DNA 1: GAGAGAGTCAAGGTCATGGCTCACT DNA 2: AGTGAGCCATGACCTTGACTCTCTC | 6.49 ± 0.35 | 8.56 ± 0.69
2 | Nr5a2 motif DNA (dsDNA) DNA 1: GAGAGAGTCAAGGCCATGGCTCACT DNA 2: AGTGAGCCATGGCCTTGACTCTCTC | 5.62 ± 1 | 626 ± 133
